Measured values as given in PMC4629521.
Each block holds one substance with its values, some of them ahead of it.

Key:
[1] = cross-linking + SEC
[2] = molecular target: RSHAra, RSH partially dearabinosylated by alpha-L-arabinofuranosidase (Arabidopsis) (UniProt Q9FS16); assay: cross-linking + SEC
[3] = molecular target: P1pH2, TOMP1 partially dearabinosylated by pH 2.0 HCl (tomato); assay: cross-linking + SEC
[4] = molecular target: TOMP1, tomato extensin precursor 1 (native) (tomato); assay: cross-linking + SEC
[5] = tested on: Q9FS16; assay: cross-linking + SEC
[6] = molecular target: RSH, monomeric extensin from Arabidopsis (native) (Arabidopsis) (UniProt Q9FS16); assay: cross-linking + SEC
[7] = molecular target: P1Ara, TOMP1 partially dearabinosylated by alpha-L-arabinofuranosidase (tomato); assay: cross-linking + SEC
[8] = molecular target: RSHpH2, RSH partially dearabinosylated by pH 2.0 HCl (Arabidopsis) (UniProt Q9FS16); assay: cross-linking + SEC

initial cross-linking rate [2]: 85 µg/mL⋅min
Substance: RSHAra, RSH partially dearabinosylated by alpha-L-arabinofuranosidase (from UniProt Q9FS16 28-431) (natural protein)

initial cross-linking rate [3]: 95.3 µg/mL⋅min
Substance: P1pH2, TOMP1 partially dearabinosylated by pH 2.0 HCl (natural protein)

initial cross-linking rate [4]: 213 µg/mL⋅min
Substance: TOMP1, tomato extensin precursor 1 (native) (natural protein)

initial cross-linking rate [6]: 269 µg/mL⋅min
Substance: RSH, monomeric extensin from Arabidopsis (native) (from UniProt Q9FS16 28-431) (natural protein)

initial cross-linking rate [7]: 28.5 µg/mL⋅min
Substance: P1Ara, TOMP1 partially dearabinosylated by alpha-L-arabinofuranosidase (natural protein)

initial cross-linking rate [8]: 223 µg/mL⋅min
Substance: RSHpH2, RSH partially dearabinosylated by pH 2.0 HCl (from UniProt Q9FS16 28-431) (natural protein)

The remaining lines, values behind:

Substance: TOMP1, tomato extensin precursor 1 (native)
monomer peak area loss (5~30 min XL) [1]: 73.9%

Substance: P1Ara, TOMP1 partially dearabinosylated by alpha-L-arabinofuranosidase
monomer peak area loss (5~30 min XL) [1]: 24.9%

Substance: RSHpH2, RSH partially dearabinosylated by pH 2.0 HCl
monomer peak area loss (5~30 min XL) [5]: 74.2%

Substance: RSHAra, RSH partially dearabinosylated by alpha-L-arabinofuranosidase
monomer peak area loss (5~30 min XL) [5]: 40.1%

Substance: P1pH2, TOMP1 partially dearabinosylated by pH 2.0 HCl
monomer peak area loss (5~30 min XL) [1]: 54.2%

Substance: RSH, monomeric extensin from Arabidopsis (native)
monomer peak area loss (5~30 min XL) [5]: 80.3%
